Results as given in patent CN111393529A (KANGYUAN BOCHUANG BIO TECH BEIJING CO LTD, dated 2020).

T1: OX40蛋白胞外区与小鼠IgG2a-FC的融合蛋白 (human; mouse, UniProt P43489 29-214)
T1 construct: also called 抗原OX40小鼠IgG2a Fc标签蛋白; 实施例1中的融合蛋白; not shown: Mouse IgG2a Fc, from Genbank AAH31470.1
T1 sequence: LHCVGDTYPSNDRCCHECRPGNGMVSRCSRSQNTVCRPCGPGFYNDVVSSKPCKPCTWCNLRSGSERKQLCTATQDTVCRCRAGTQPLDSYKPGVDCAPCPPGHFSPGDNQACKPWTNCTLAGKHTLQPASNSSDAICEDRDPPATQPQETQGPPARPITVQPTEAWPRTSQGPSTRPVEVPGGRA


Target: T1, OX40蛋白胞外区与小鼠IgG2a-FC的融合蛋白
Test: SPR, Biacore T200, antibody captured on CM5 chip, OX40-mouse IgG2a Fc as analyte

| Kd [nM] | Binder |
| --- | --- |
| 11 | 抗体H1K1 (antibody, V domains shown) VH: EVQLQQPGSVLVRPGTSVKLSCKASGYTFTSSWIHWARQRPGQGLEWIGDIHPNSGNTNYNEKFKGKATLTVDTSSSTAYVDLSSLTSEDSAVYYCVRSYGNYKDYYGMDYWGQGTSVTVSS VL: DILMTQSPASLAVSLGQRATISCKASQSVDYDGDSYMNWYQQKPGQPPKLLIYAASNLESGIPARFSGSGSGTDFTLNIHPVEEEDAATYYCQQSNEDPYTFGGGTKLEIKR |
| 5.1 | 抗体H1E6 (antibody, V domains shown) VH: EVKLVESGAELVKPGTSVRLSCKASGYTFTSYDINWVRQRPEQGLEWIGWIFPGDGSTKYNEKFKGKATLTTDKSSSTVYMQLSRLTSEDSAVYFCARWDGYYEGDYFDNWGQGTTLTVSS VL: DIVMTQSPSSLSASLGGKVTITCKASQDINKYIAWYQHKPGKGPRLLIHYTSTLQPGIPSRFSGSGSGRDYSFNISNLEPEDIATYYCLQYVNLYTFGGGTKLEIKR |
| 4.4 | 抗体I3E3 (antibody, V domains shown) VH: EVKLVESGGGLVQPGGSLRLSCATSGFTFSDFYMGWVRQPPGKRLEWIAASRNKAYDYTTAYSASVKGRFIVSRDTSQSILYLQMNALRAEDTAIYYCARDDGYYPMDYWGQGTSVTVSS VL: DIQLTQSPASLAVSLGQRATISCRASKSVSTSGYSYMHWYQQKPGQPPKLLIYLASNLESGVPARFSGSGSGTDFTLNIHPVEEEDAATYYCQHSRELPLTFGAGTKLELKR |
